Results from US20050042213A1 (INSIGHT BIOPHARMACEUTICALS, published 2005).

T1: active heparanase (H53), heterodimer of the 8 kDa and 45 kDa subunits (human, UniProt Q9Y251 36-109; Q9Y251 158-543)
T1 sequence 1: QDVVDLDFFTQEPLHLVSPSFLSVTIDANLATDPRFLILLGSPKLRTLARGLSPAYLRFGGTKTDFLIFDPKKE
T1 sequence 2: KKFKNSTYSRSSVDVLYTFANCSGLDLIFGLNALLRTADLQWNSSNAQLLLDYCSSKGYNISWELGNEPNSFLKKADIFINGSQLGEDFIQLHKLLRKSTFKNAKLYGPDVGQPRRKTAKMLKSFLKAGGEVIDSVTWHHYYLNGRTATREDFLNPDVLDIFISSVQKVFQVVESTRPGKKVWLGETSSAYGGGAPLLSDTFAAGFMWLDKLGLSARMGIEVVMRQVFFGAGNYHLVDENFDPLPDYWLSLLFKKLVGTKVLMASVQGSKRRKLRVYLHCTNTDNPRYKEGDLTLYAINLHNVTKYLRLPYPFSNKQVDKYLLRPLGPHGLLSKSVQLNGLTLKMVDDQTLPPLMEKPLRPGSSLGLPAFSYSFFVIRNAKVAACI

T2: pro-heparanase (H60), purified recombinant human 60 kDa latent heparanase (human, UniProt Q9Y251 36-543)
T2 sequence: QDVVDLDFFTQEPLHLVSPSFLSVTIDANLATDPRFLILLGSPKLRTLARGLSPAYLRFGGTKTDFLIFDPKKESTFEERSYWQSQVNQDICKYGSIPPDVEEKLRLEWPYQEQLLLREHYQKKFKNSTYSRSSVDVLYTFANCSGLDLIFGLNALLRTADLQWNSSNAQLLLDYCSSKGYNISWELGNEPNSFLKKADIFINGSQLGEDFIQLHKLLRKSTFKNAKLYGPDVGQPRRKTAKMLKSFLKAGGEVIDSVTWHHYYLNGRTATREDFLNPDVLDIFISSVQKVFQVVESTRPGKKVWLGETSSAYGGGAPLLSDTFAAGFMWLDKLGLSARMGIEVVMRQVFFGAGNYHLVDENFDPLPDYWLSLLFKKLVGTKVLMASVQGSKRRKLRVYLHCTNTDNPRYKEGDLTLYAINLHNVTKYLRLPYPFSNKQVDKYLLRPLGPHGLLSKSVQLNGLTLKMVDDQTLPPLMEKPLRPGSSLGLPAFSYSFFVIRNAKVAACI


target: T1, active heparanase (H53), heterodimer of …; assay: cell-based or functional assay

IC50 Heparanase | Binder
21 µM | CTWHHYYLNGRTATR [Pep-25]

target: T2, pro-heparanase (H60), purified …; assay: cell-based or functional assay

IC50 H60 (µM), H60 activation in the cell-based assay | Binder
65 µM | PRFLILL [P8-11]

target: T1, active heparanase (H53), heterodimer of …; assay: cell-based or functional assay; remark: another data set of the same source

Binder | IC50 H53
FLILLGSPKLRTL [P8-8] | 8 µM
PRFLILLGSPKLR [P8-4] | 2.3 µM
LRTLARGLSPAYL [P8-5] | 18 µM
PRFLILL [P8-11] | 1.4 µM

Results, then the binder that gave them:

IC50 H53 | Binder
6 µM | DPRFLILL [P8-16]
5 µM | RFLILL [P8-18]
7 µM | CPAYLRFGGTKTDFLIFDPLLE [Pep-7]
